Test results from PMC2962642, “Familial Glucocorticoid Receptor Haploinsufficiency by Non-Sense Mediated mRNA Decay, Adrenal Hyperplasia and Apparent Mineralocorticoid Excess”.

Target: hGRalpha-R469X (Homo sapiens, UniProt P04150 1-468)
Experiment: EMSA; 15 min at 25 C; 4.5% acrylamide/bisacrylamide (37:1) gel, 0.25x TBE (50 mM Tris, 50 mM boric acid, 1 mM EDTA); binding buffer and pH not stated (as in ref. 26)
Settings: protein: ivt; label: 32P-dCTP (Klenow fill-in); 5' overhangs AGCT, filled in by Klenow for the labeled probe

Chain of hGRalpha-R469X (P04150 1-468): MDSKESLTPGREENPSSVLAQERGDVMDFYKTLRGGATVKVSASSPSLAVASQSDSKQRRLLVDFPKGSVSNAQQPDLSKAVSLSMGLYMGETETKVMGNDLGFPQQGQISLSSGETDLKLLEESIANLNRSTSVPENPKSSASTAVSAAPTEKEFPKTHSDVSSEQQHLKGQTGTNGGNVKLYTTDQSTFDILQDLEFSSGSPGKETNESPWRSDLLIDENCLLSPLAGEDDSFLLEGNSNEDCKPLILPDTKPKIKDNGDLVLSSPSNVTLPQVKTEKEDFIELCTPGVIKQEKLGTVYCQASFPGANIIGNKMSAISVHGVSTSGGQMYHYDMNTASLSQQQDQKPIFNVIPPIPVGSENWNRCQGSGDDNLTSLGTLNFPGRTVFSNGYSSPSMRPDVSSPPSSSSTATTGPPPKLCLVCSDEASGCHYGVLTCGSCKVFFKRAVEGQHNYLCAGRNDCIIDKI

B1: GRE consensus probe (dsDNA)
DNA 1: AGCTGCTCAGCTAGAACACTCTGTTCTCTACT
DNA 2: AGCTAGTAGAGAACAGAGTGTTCTAGCTAGC
binding result: no binding
